The source of these data is patent US20050182242A1, “Global analysis of protein activities using proteome chips” (priority 2001, published 2005).

Settings in all cases: liposome binding signal on yeast proteome chip, Cy3-streptavidin detection
One series deals with PI(3,4,5)P3 liposomes. Briefly: Yeast proteome chip probed with PI(3,4,5)P3 liposomes.
A further series deals with PI(4,5)P2 liposomes. Briefly: Yeast proteome chip probed with PI(4,5)P2 liposomes.
In series [1] the test system is phosphatidylcholine (PC) liposomes. Nature of the series: Yeast proteome chip probed with PC liposomes. A digest of the protocol: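 Signal comes from Cy3- or Cy5-streptavidin recognising 1% (w/w) biotin-DHPE carried in every liposome. Liposomes were PC alone or PC containing 5% (w/w) of a single phosphoinositide, applied to arrayed GST-fusion yeast proteins for 1 h at RT.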

For the next series, the system named is PI(4)P liposomes. Nature of the series: Yeast proteome chip probed with PI(4)P liposomes.
In the next series the test system is PI(3,4)P2 liposomes. Briefly: Yeast proteome chip probed with PI(3,4)P2 liposomes.
In the next series the test system is PI(3)P liposomes. Nature of the series: Yeast proteome chip probed with PI(3)P liposomes.

B1: RGD1: yeast GST-HisX6 fusion protein on proteome chip (protein, UniProt P38339 1-666, looked up)
RHO GTPase-activating protein …: MEETAKKPASATVSAKSSHDGGTDDLAHLFSTPEIKKVLNSDVAINALLSRLKQSLLTCEEFMKFIRKKYAFEEEHVQELSKQYKHFFNIQGSTNSSLKKMIHEVLGFDGKMAQVKQSYITALQKMYSEISSLLLTMTKLRKSVKENSKRLEKDVSDAIHSAEKAQSRYNSLCQDWDKLRMTDPTKTKLTLRGSKTTKEQEEELLRKIDNADLEYKQKVDHSNSLRNTFITKERPRIVQELKDLILEIDTAMTIQLQKYTIWTENLVLNTGVTISPLDSTKSMKSFAGSVSNERDLYSFLNKYNQTGKHSLLINKNLIPVSYKKHPSMNHGQKNKSPPKFAVDPSRNSIPKRMISTHNESPFLSSSSNTAAVPNANLNSATPSLNTNKQLPPTMASSISSTSNAAGAMSPSSSIVTSDTTSSITKTLDPGNNSPQIPEELINSLDSDRPISHIQTNNNMPPGVQKNFKTFGVPLESLIEFEQDMVPAIVRQCIYVIDKFGLDQEGIYRKSANVLDVSKLKEEIDKDPANISMILPSKPHSDSDIYLVGSLLKTFFASLPDSVLPKALSSEIKVCLQIEDPTTRKNFMHGLIYNLPDAQYWTLRALVFHLKRVLAHEAQNRMNLRALCIIWGPTIAPANPDDANDVNFQIMAMEVLLEVSDQAFEPE
modifications: GST-His6 tag
notes: yeast GST-HisX6 fusion protein on proteome chip
Consider B1, for which, in the series with PI(3,4,5)P3 liposomes, the “PI(3, 4, 5)P3” value was 19.35. Besides, in the series with PI(4,5)P2 liposomes, the “PI(4, 5)P2” value worked out at 55.31. In series [1], this molecule returned a PC of 54.59. Besides, in the series with PI(4)P liposomes, the “PI(4)P” value turned out to be 127.60. For the same molecule, in the series with PI(3,4)P2 liposomes, the “PI(3, 4)P2” value stood at 54.31. The “PI(3)P” value in the series with PI(3)P liposomes is given as 6.00.

B2: RPH1: yeast GST-HisX6 fusion protein on proteome chip (protein, UniProt P39956 1-796, looked up)
DNA damage-responsive …: MTKLIAPSEIVGGVPVFKPTYEQFEDFYAYCKAINKYGMKSGVVKVIPPKEWKDKLDLPYSAETLQKIKIKSPIQQHISGNKGLFMVQNVEKNKTYNIIQWKDLSKDYVPPEDPKARRNSRKGSVSKSTKLKLKNFESSFNIDDFEQFRTEYTIDLSDFQNTERLKFLEEYYWKTLNFTTPMYGADTPGSIFPEGLNVWNVAKLPNILDHMETKVPGVNDSYLYAGLWKASFSWHLEDQDLYSINYIHFGAPKQWYSIPQEDRFKFYKFMQEQFPEEAKNCPEFLRHKMFLASPKLLQENGIRCNEIVHHEGEFMITYPYGYHAGFNYGYNLAESVNFALEEWLPIGKKAGKCHCISDSVEIDVKKLAKSWRDNNKESKGTPPLNQLPNPAMPLLHRPTLKEMESSSLRSTSPDVGHFSNFKSKSSGVSSPLLSRMKDYSNIVEPTLEDPTLKLKRISSFQEQPLNKLLKRETSQTAMLTDHEDNIVAMSLTSMANSAASSPRLPLSRLNSSNELSNAQPLLDMTNNTLAFPRPNGPSGLNPLLYISNKNISGISHSAPHSPVNPNISLIKRVKSPNIVTLNISRESSRSPIALNYEARQQHSQQHSFSTPSTVSNLSTSVLGPLSDTNDIKTPHPERPNHKTANRILKKESPVETSKSNLILSKVASTRQEDSFTSRNDDLDKEQGSSPLNSKFAPEEIVLSGKNKIYICKECQRKFSSGHHLTRHKKSVHSGEKPHSCPKCGKRFKRRDHVLQHLNKKIPCISNETTVDAPIMNPTVQPQDGKAAINQQSTPLN
modifications: GST-His6 tag
notes: as for B1
Consider B2, for which the “PI(3, 4, 5)P3” value with PI(3,4,5)P3 liposomes is recorded as 9.90. For the same molecule, the “PI(4, 5)P2” value in the series with PI(4,5)P2 liposomes is listed as 18.73. In series [1], this molecule gave a PC of 56.93. The “PI(4)P” value in the series on PI(4)P liposomes is reported as 66.19. In addition, the “PI(3, 4)P2” value in the series on PI(3,4)P2 liposomes is given as 90.73. For the same molecule, the “PI(3)P” value in the series on PI(3)P liposomes is given as 6.00.
